Measurements: EP4582451A1 (Changchun Genescience Pharmaceutical Co., Ltd., dated 2025)
Like-named read-outs stand apart in the source and are kept apart here.

Experiments:
[1] = molecular target: T1, human thyroid-stimulating hormone receptor (TSHR) (human, UniProt P16473 21-764); test: cell-based or functional assay
[2] = molecular target: T1, human thyroid-stimulating hormone …; test: cell-based or functional assay; remark: listed apart in the source
[3] = molecular target: T2, mouse thyroid-stimulating hormone receptor (TSHR) (mouse, UniProt P47750 22-764); test: flow cytometry (FACS), 293 cells overexpressing mouse TSHR
T2 construct: whole, on cells; Overexpressed on 293 cells; also called mouse TSHR; murine TSHR

[4] = molecular target: T3, monkey thyroid-stimulating hormone receptor (TSHR) (monkey, UniProt A0A2K5X226 21-764); test: flow cytometry (FACS), 293 cells overexpressing monkey TSHR
T3 construct: Overexpressed on 293 cells; also called monkey TSHR

[5] = molecular target: T4, hFcRn-Avi (Biosystems, FCM-H82W7) (human (printed as hFcRn), UniProt P55899 24-297; P61769 21-119, biotin on the Avi tag is implied by capture on an SA chip); test: SPR (Biacore 8K+), hFcRn-Avi captured on SA chip, antibody in flow, pH 6.0, 25 C, steady-state fit
T4 construct: Bought reagent

[6] = molecular target: T1, human thyroid-stimulating hormone …; test: flow cytometry (FACS), 293 cells overexpressing human TSHR
[7] = molecular target: T2, mouse thyroid-stimulating hormone …; test: flow cytometry (FACS), 293 cells overexpressing mouse TSHR; remark: listed apart in the source
[8] = molecular target: T3, monkey thyroid-stimulating hormone …; test: flow cytometry (FACS), 293 cells overexpressing monkey TSHR; remark: listed apart in the source
[9] = molecular target: T1, human thyroid-stimulating hormone …; test: cell-based or functional assay; remark: listed apart in the source
[10] = molecular target: T1, human thyroid-stimulating hormone …; test: flow cytometry (FACS), 293 cells overexpressing human TSHR; remark: listed apart in the source

T3 sequence (A0A2K5X226 entry or part of it limits assumed, form in doubt): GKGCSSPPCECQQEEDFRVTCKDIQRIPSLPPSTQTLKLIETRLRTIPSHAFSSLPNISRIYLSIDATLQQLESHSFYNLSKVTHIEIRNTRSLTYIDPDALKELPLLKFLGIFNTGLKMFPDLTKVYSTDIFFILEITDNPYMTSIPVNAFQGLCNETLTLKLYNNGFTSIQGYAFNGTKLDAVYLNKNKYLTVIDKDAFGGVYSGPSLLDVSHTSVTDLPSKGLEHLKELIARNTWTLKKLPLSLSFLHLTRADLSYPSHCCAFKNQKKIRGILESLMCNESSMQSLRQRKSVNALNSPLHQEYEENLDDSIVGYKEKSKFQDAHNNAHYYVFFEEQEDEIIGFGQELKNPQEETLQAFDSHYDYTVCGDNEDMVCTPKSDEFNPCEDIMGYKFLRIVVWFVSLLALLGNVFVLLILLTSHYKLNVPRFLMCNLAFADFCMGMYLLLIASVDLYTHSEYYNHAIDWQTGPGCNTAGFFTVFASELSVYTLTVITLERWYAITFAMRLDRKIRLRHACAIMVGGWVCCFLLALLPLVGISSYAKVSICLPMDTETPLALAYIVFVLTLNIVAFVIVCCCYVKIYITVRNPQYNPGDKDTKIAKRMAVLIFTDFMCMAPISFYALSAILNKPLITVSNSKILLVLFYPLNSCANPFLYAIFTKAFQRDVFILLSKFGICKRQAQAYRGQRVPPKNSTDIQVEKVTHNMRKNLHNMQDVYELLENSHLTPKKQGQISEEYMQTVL
T2 sequence (P47750 22-764): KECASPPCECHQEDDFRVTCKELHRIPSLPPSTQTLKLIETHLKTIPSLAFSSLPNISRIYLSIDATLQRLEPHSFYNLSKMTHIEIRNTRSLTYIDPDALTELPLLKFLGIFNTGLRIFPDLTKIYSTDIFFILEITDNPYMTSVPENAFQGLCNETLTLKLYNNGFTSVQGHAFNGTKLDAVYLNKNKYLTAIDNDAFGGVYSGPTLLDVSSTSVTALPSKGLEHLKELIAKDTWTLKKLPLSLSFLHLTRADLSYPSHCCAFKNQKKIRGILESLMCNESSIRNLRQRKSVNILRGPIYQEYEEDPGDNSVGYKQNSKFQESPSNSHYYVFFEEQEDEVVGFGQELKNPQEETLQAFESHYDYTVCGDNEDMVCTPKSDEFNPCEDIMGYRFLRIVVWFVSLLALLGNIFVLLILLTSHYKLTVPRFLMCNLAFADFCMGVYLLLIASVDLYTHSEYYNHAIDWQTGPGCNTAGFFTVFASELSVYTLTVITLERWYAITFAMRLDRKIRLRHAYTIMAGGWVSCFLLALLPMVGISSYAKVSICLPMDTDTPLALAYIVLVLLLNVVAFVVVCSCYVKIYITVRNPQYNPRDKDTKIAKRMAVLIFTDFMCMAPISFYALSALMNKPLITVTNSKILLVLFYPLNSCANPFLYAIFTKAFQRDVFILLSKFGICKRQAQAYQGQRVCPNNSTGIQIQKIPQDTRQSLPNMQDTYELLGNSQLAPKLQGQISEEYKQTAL
T1 sequence (P16473 21-764): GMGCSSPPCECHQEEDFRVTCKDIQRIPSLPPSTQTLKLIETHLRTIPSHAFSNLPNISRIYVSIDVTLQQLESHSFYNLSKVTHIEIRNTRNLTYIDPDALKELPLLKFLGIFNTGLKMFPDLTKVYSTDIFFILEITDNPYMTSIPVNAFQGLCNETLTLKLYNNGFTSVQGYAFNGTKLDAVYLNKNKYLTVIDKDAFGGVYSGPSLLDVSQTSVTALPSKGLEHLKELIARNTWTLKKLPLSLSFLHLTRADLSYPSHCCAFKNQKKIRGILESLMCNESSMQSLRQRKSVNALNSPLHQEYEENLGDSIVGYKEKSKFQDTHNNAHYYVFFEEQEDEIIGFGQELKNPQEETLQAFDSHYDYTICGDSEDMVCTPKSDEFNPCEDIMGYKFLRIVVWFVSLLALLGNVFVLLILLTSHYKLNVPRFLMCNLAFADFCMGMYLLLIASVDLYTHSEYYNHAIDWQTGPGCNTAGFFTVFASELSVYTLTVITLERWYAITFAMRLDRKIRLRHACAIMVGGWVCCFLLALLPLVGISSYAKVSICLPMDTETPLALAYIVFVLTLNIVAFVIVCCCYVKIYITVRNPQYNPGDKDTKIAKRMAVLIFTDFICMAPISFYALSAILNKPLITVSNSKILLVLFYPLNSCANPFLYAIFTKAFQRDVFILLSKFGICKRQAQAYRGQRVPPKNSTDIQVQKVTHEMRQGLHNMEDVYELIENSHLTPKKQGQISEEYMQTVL
T4 sequence (P55899 24-297 limits assumed, chain 1 of 2): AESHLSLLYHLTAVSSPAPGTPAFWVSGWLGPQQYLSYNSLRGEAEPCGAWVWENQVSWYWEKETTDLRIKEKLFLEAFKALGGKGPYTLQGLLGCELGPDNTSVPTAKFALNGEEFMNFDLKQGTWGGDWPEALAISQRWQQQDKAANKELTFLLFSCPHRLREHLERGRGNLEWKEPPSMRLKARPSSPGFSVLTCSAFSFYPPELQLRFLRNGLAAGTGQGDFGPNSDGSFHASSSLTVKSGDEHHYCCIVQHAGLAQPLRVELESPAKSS
T4 sequence (P61769 21-119 limits assumed, chain 2 of 2): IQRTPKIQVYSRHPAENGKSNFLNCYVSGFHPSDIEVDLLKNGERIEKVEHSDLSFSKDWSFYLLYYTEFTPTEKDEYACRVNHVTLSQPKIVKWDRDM

Binder | IC50(nM), cAMP in 293-human TSHR cells activated by Tab01 (30 nM) [1] [nM] | IC50(nM), cAMP in 293-human TSHR cells activated by Tab02 (6.5 nM) [1] [nM] | IC50 (nM), cAMP in 293-human TSHR cells activated by Tab01 [2] [nM] | IC50 (nM), cAMP in 293-human TSHR cells activated by Tab02 [2] [nM] | Maximum inhibition rate (%), cAMP in 293-human TSHR cells activated by Tab01 [2] [%] | Maximum inhibition rate (%), cAMP in 293-human TSHR cells activated by Tab02 [2] [%] | EC50 [3] [nM] | Maximum binding signal [3] | EC50 [4] [nM] | Maximum binding signal [4] | Kd [5] [nM] | Response value (RU) [5] [RU] | also measured
humanized antibody cAb01-VH2-DA-VL3 (named hAb01_G4P) (antibody, human IgG4 S228P, kappa) heavy: not shown light: EIVLTQSPATLSLSPGERATLSCSASSSVSYMHWYQQKPGQAPKRWIYDTSKLASGVPARFSGSGSGTDYTLTISSLEPEDFAVYYCQQWSSNPWTFGGGTKLEIKRTVAAPSVFIFPPSDEQLKSGTASVVCLLNNFYPREAKVQWKVDNALQSGNSQESVTEQDSKDSTYSLSSTLTLSKADYEKHKVYACEVTHQGLSSPVTKSFNRGEC | 2.2 | 2.2 | 2.28 | 2.4 | 102 | 94.2 | 3.22 | 123000 | 2.6 | 193000 | 343 | 35.8 | 
hAb01_G1_V4 (antibody, human IgG1, kappa, L234A L235A) heavy: EVQLVESGGGLVKPGGSLRLSCAASGFTLSDYYIYWVRQAPGKGLEWVATISDAVIYTYYADSVKGRFTISRDNAKNSLYLQMNSLRAEDTAVYFCARAYGSSEVMDYWGQGTLVTVSSASTKGPSVFPLAPSSKSTSGGTAALGCLVKDYFPEPVTVSWNSGALTSGVHTFPAVLQSSGLYSLSSVVTVPSSSLGTQTYICNVNHKPSNTKVDKKVEPKSCDKTHTCPPCPAPEAAGGPSVFLFPPKPKDTLYITREPEVTCVVVDVSHEDPEVKFNWYVDGVEVHNAKTKPREEQYNSTYRVVSVLTVLHQDWLNGKEYKCKVSNKALPAPIEKTISKAKGQPREPQVYTLPPSRDELTKNQVSLTCLVKGFYPSDIAVEWESNGQPENNYKTTPPVLDSDGSFFLYSKLTVDKSRWQQGNVFSCSVMHEALHNHYTQKSLSLSPGK light: EIVLTQSPATLSLSPGERATLSCSASSSVSYMHWYQQKPGQAPKRWIYDTSKLASGVPARFSGSGSGTDYTLTISSLEPEDFAVYYCQQWSSNPWTFGGGTKLEIKRTVAAPSVFIFPPSDEQLKSGTASVVCLLNNFYPREAKVQWKVDNALQSGNSQESVTEQDSKDSTYSLSSTLTLSKADYEKHKVYACEVTHQGLSSPVTKSFNRGEC |  |  | 5.4 | 2.04 | 94 | 91.1 |  |  |  |  | 90 | 94.5 | EC50 [6]: 4.4 nM; Max_MFI [6]: 371000; EC50 [7]: 2.75 nM; Max_MFI [7]: 178000; EC50 [8]: 2.77 nM; Max_MFI [8]: 244000
humanized antibody cAb01-VH2-DA-VL2 (antibody, human IgG4 S228P, kappa, V domains shown, Humanized from mAb001) VH: EVQLVESGGGLVKPGGSLRLSCAASGFTLSDYYIYWVRQAPGKGLEWVATISDAVIYTYYADSVKGRFTISRDNAKNSLYLQMNSLRAEDTAVYFCARAYGSSEVMDYWGQGTLVTVSS VL: EIVLTQSPATLSLSPGERATLSCSASSSVSYMHWYQQKPGQAPRRWIYDTSKLASGIPARFSGSGSGTDYTLTISSLEPEDFAVYYCQQWSSNPWTFGGGTKLEIKR |  |  |  |  |  |  | 2.16 | 117000 | 2.14 | 193000 |  |  | IC50(nM), cAMP in 293-human TSHR cells activated by Tab01 (30 nM) [9]: 0.28 nM; IC50(nM), cAMP in 293-human TSHR cells activated by Tab02 (6.5 nM) [9]: 0.15 nM; Inhibition rate (%), cAMP in 293-human TSHR cells activated by Tab01 (30 nM) [9]: 76.7%; Inhibition rate (%), cAMP in 293-human TSHR cells activated by Tab02 (6.5 nM) [9]: 86.2%; EC50 [10]: 3.71 nM; Maximum binding signal [10]: 396000
humanized antibody cAb01-VH1-DA-VL3 (antibody, human IgG4 S228P, kappa, V domains shown, Humanized from mAb001) VH: EVQLVESGGGLVKPGGSLRLSCAASGFTLSDYYIYWVRQAPGKGLEWVSTISDAVIYTYYADSVKGRFTISRDNAKNSLYLQMNSLRAEDTAVYYCARAYGSSEVMDYWGQGTLVTVSS VL: EIVLTQSPATLSLSPGERATLSCSASSSVSYMHWYQQKPGQAPKRWIYDTSKLASGVPARFSGSGSGTDYTLTISSLEPEDFAVYYCQQWSSNPWTFGGGTKLEIKR | 0.085 | 0.054 |  |  |  |  | 2.9 | 106000 | 2.3 | 180000 |  |  | 
